For the series, the target named is T1, rOxyR (Porphyromonas gingivalis 33277?) (UniProt B2RHP2).
T1 sequence: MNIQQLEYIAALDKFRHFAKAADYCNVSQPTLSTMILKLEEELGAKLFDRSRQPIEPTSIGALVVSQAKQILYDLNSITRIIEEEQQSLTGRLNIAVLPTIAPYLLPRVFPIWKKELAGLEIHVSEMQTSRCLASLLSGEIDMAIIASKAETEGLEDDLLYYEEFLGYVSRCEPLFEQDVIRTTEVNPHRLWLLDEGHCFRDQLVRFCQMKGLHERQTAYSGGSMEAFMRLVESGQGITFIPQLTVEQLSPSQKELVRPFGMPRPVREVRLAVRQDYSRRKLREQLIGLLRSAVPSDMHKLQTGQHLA
The experiment in a line: EMSA. (A gel shift assay detects complexes by their altered migration in electrophoresis.)

Here are results for 2 sequences from publication PMC2430334.

As to “CGTCTTACCGGCTTCCCTATAGCAAAGGAAAGCATTTTTTTCTACTAAAAATTAATTCTAACAATATTCTGCTGTCTTCTACGTGTTTATACGCAGAAAAACGAAAAAAAACCGCACTACTCAATAAAAAAAACGCGATATTGACCCTCGCGAGAG (double strand) [mfa1 promoter region]”, the binding entry was “no binding”. Then “CTTTTCGCCCGAAGGTTTTATCTTCCGGCCGGAGCTTTCGGATGAGATCAACTACCTTTTCGTCATGGAATGAATCGGTTTTTACGACCAAGATTCGAACCTTTTTCCGTTCATCATGTTCTTATAATGATTAAAAAGTTGTCGGTGTCGGTTTTACACTGCTCCGATACAAATTATTAAAAGACTTAATTACAATAAAAATCAGACGTT (double strand) [sod promoter region]”, with “binds”.
